Laboratory results from US20210094988A1 (UNIVERSITY OF FLORIDA RESEARCH FOUNDATION, published 2021).

Molecular target: the molecule itself
Test: X-ray crystallography, homodimer in the crystal

B1: recombinant SP-free Coprinus comatus Y3 protein (monomer) (other)
chain: QDPLSCYDNFGNRDVAACARFIDDFCDTLTPNIYRPRDNGQRCYVVNGHKCDFTVFNTNNGGSPIRASTPNCKTVLRAAANRCPTGGRGKINPSAPFLFAIDPNDGDCSTDF
modifications: pyroglutamic acid (PCA) formed from Gln19; four intramolecular disulfide bridges Cys24-Cys101, Cys36-Cys69, Cys61-Cys126, Cys44-Cys90
notes: also called recombinant Y3; mature recombinant Y3 protein
B1: binds.
